Laboratory results taken from the Human Domainome abundance scans (Beltran et al. 2025).
± gives the uncertainty stated by the source.

B1: SWI/SNF-related matrix-associated actin-dependent regulator of chromatin subfamily B member 1, residues 181 to 248; numbered along this chain, Q12824 (parent)
chain: SQPEVLVPIRLDMEIDGQKLRDAFTWNMNEKLMTPEMFSEILCDDLDLNPLTFVPAIASAIRQQIESY

Variants of: B1
Assay: abundance fitness (aPCA) (normalised: wild type 0, dead -1); higher = more abundant; growth selection in yeast, the domain comes from the species named
Settings: Homo sapiens

Variant	abundance fitness
M28P	-0.5 ± 0.21
M28T	-0.277 ± 0.24
M28L	0.087 ± 0.16
M28V	-0.086 ± 0.14
T25Y	-0.326 ± 0.18
T25W	-0.228 ± 0.05
E40D	-0.566 ± 0.089
E40G	-0.347 ± 0.036
E40T	-0.12 ± 0.045
E40W	-0.511 ± 0.06
E40K	-0.015 ± 0.055
E40R	0.042 ± 0.033
E40M	-0.149 ± 0.073
E40A	0.038 ± 0.033
E40V	-0.215 ± 0.041
E40Q	0.005 ± 0.065
E40P	-0.794 ± 0.14
E40S	-0.114 ± 0.045
E40H	-0.236 ± 0.065
E40Y	-0.33 ± 0.082
E40F	-0.463 ± 0.17

Variant	abundance fitness
E40I	-0.419 ± 0.099
E40N	-0.269 ± 0.11
W26C	-0.673 ± 0.42
W26R	-0.498 ± 0.18
W26E	-0.628 ± 0.33
W26Q	-0.879 ± 0.29
W26T	-0.854 ± 0.26
W26A	-1 ± 0.28
W26M	-0.566 ± 0.33
N29G	-0.244 ± 0.087
N29D	-0.212 ± 0.24
N29K	-0.286 ± 0.096
N29S	-0.136 ± 0.28
N29R	-0.273 ± 0.23
N29V	-0.727 ± 0.21
N29Q	-0.476 ± 0.45
N29F	-0.736 ± 0.28
N29L	-0.939 ± 0.25
C43E	-1.02 ± 0.35
C43N	-1.03 ± 0.19
C43Q	-0.72 ± 0.11

Variant	abundance fitness
C43H	-0.956 ± 0.15
C43R	-0.831 ± 0.1
C43M	-0.686 ± 0.15
C43A	-0.467 ± 0.099
C43G	-0.739 ± 0.12
C43L	-0.808 ± 0.083
C43K	-0.613 ± 0.11
T34E	-0.388 ± 0.49
T34V	-0.35 ± 0.15
T34P	-0.454 ± 0.38
T34C	-0.831 ± 0.23
T34S	-0.205 ± 0.073
T34R	-0.876 ± 0.17
T34G	-0.686 ± 0.25
T34I	-0.848 ± 0.39
T34W	-0.615 ± 0.41
T34Q	-0.881 ± 0.39
S39R	-0.797 ± 0.36
S39P	-0.685 ± 0.38
I41V	0.01 ± 0.04
I41L	-0.011 ± 0.036

Variant	abundance fitness
I41N	0.167 ± 0.068
I41S	0.174 ± 0.033
I41E	0.131 ± 0.043
I41G	0.097 ± 0.041
I41H	0.034 ± 0.061
I41F	-0.103 ± 0.092
I41Q	0.211 ± 0.06
I41R	0.218 ± 0.03
I41W	-0.04 ± 0.045
I41A	0.207 ± 0.04
I41D	-0.04 ± 0.12
I41T	0.091 ± 0.049
I41K	0.314 ± 0.05
I41C	-0.062 ± 0.061
I41M	0.131 ± 0.048
I41Y	-0.057 ± 0.076
E30G	-0.617 ± 0.32
E30W	0.023 ± 0.32
E30A	-0.619 ± 0.34
L32P	-0.821 ± 0.21
